In IntAct's records for PubMed 19359471:

B1: Anterior gradient protein 2 homolog (Homo sapiens), O95994 (parent)
chain: MEKIPVSAFLLLVALSYTLARDTTVKPGAKKDTKDSRPKLPQTLSRGWGDQLIWTQTYEEALYKSKTSNKPLMIIHHLDECPHSQALKKVFAENKEIQKLAEQFVLLNLVYETTDKHLSPDGQYVPRIMFVDPSLTVRADITGRYSNRLYAYEPADTALLLDNMKKALKLLKTEL

Variants of: B1
Conditions: with muc2_human MUC2, Q02817

| Variant | effect of a mutation on the interaction |
| --- | --- |
| C81S | disrupting interaction |
